Experiment in all cases: cell_activity
Data set [1] deals with ZFN pair targeting CHO Rosa26 (artificial). To be noted: indels in CHO K1 3 days post transfection, CEL-I or sequencing.
For data set [2], the system named is ZFN pair targeting CHO NW_003618207.1 (artificial). As to conditions: indels in CHO K1 3 days post transfection, CEL-I or sequencing.
The test system of data set [3] is hRSK4 ZFN pair (artificial). As to conditions: ZFN activity of the pair; assay conditions not given.
Data set [4] deals with ZFN pair targeting CHO Neu3 (artificial). To be noted: indels in CHO K1 3 days post transfection, CEL-I or sequencing.
Data set [5] deals with hSIRT ZFN pair (artificial). To be noted: ZFN activity of the pair; assay conditions not given.

Drawing on US20160145645, this text covers activity for five substances.

Regarding CHO Rosa26 locus, the activity in data set [1] amounted to 31%.

CHO NW_003618207.1 bp 12931-12970 showed an activity in data set [2] of 16%.

In data set [3], “GGCTCCTACTCTGTTTGCAAGCGATGCATACATGCAA (double strand) [hRSK4 ZFN recognition sequence]” yielded an activity of 65.7%.

Turning to CHO Neu3 locus, in data set [4], the activity is 41%.

With “ATCTTGCCTGATTTGTAAATACAAAGTTGACTGTGAA (double strand) [hSIRT ZFN recognition sequence]”, the activity in data set [5] came to 16.7%.
